Changes are numbered by the printed parent chain.
Columns and labels:
Settings in all cases: protein: recombinant; tags: N-His6;C-myc; label: 32P guide strand; 2 nt 3' overhangs
TRBP-ΔdsRBD3 = molecular target: T1, TRBP-ΔdsRBD3 (human, UniProt Q15633 1-292); test: EMSA; complex 1; EMSA: 20 mM Tris pH 7.5, 150 mM NaCl, 2 mM EDTA, 1 mM 2-mercaptoethanol, 1 mM DTT, 50 ng/ul salmon sperm DNA, 0.4 U/ul RNasin, 0.5 nM 32P-siRNA, 30 min on ice
T1 sequence: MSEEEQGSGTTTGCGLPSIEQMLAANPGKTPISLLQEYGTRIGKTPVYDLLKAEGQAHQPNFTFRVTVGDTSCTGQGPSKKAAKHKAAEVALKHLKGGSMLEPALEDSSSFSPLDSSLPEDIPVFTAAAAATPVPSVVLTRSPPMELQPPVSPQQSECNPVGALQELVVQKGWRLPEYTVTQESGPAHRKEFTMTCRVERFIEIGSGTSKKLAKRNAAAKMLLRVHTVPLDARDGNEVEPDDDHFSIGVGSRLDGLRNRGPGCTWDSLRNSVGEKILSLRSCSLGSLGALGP

TRBP-WT = molecular target: T2, TRBP-WT (human, UniProt Q15633 1-366); test: EMSA; complex 1 (monomer); EMSA: 20 mM Tris pH 7.5, 150 mM NaCl, 2 mM EDTA, 1 mM 2-mercaptoethanol, 1 mM DTT, 50 ng/ul salmon sperm DNA, 0.4 U/ul RNasin, 0.5 nM 32P-siRNA, 30 min on ice
T2 sequence: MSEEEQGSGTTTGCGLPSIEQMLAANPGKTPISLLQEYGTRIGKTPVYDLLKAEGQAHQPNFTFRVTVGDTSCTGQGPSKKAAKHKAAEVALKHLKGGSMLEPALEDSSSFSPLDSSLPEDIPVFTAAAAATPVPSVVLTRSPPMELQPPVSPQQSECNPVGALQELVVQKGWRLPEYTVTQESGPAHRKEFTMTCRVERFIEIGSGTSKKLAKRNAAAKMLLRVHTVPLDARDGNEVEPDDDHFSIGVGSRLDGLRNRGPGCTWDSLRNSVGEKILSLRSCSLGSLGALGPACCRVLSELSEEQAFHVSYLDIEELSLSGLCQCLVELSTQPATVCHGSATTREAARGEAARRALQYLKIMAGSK

TRBP-dsRBDmt1 = molecular target: T3, TRBP-dsRBDmt1 (human, UniProt Q15633 1-366, K80A;K81A); test: EMSA; single-step complex; EMSA: 20 mM Tris pH 7.5, 150 mM NaCl, 2 mM EDTA, 1 mM 2-mercaptoethanol, 1 mM DTT, 50 ng/ul salmon sperm DNA, 0.4 U/ul RNasin, 0.5 nM 32P-siRNA, 30 min on ice
T3 sequence: T2 sequence with K80A, K81A

TRBP-dsRBDmt2 = molecular target: T4, TRBP-dsRBDmt2 (human, UniProt Q15633 1-366, K210A;K211A); test: as above
T4 sequence: T2 sequence with K210A, K211A

TRBP-dsRBDmt1+2 = molecular target: T5, TRBP-dsRBDmt1+2 (human, UniProt Q15633 1-366, K80A;K81A;K210A;K211A); test: EMSA; virtually no binding; Kd ND; EMSA: 20 mM Tris pH 7.5, 150 mM NaCl, 2 mM EDTA, 1 mM 2-mercaptoethanol, 1 mM DTT, 50 ng/ul salmon sperm DNA, 0.4 U/ul RNasin, 0.5 nM 32P-siRNA, 30 min on ice
T5 sequence: T2 sequence with K80A, K81A, K210A, K211A

B1: siLuc2-153 (dsRNA)
RNA 1: UCGAAGUAUUCCGCGUACGUG
RNA 2: CGUACGCGGAAUACUUCGAUU
Kd (TRBP-ΔdsRBD3): 12 nM | Kd (TRBP-WT): 4 nM | Kd (TRBP-dsRBDmt1): 260 nM | Kd (TRBP-dsRBDmt2): 520 nM | binding result (TRBP-dsRBDmt1+2): no binding
